Data on 1 substance can be found in publication PMC10997057.

Test [1] deals with synthetic AL amyloid fibrils composed of the recombinant λ6 light chain variable domain from patient (human). Nature of the test: co-sedimentation; "pulldown" bioactivity assay as a1; batch product stored 3 h at RT post-synthesis.
For test [2] the target is unchanged. Put plainly: co-sedimentation; "pulldown" bioactivity assay; batch product at 0 h post-synthesis; 25 ug fibrils in PBS with 0.05% tween 20, 20-40 ng radiolabeled product, 1 h at RT, centrifugation 10,000 x g 3 min, gamma counting of pellet and supernatant.
In test [3] the target is ATTRv amyloid extract (patient heart), variant not named (human (endogenous in patient heart)) (UniProt P02766). Put plainly: co-sedimentation; pulldown with tissue amyloid extracts suspended in PBS at 1 mg/mL, homogenized; as for WIL fibrils except that 1.0% bovine serum albumin was added.
The target of test [4] is ALλ amyloid extract (patient spleen) (human (endogenous in patient spleen)). The test is described as above.
The target in test [5] is ALκ amyloid extract (patient liver) (human (endogenous in patient liver)). Described as above.
Test [6] concerns the target murine splenic AA amyloid extract (mouse (endogenous in spleen)) (UniProt P05367). The test is described as above.
Test [7] deals with synthetic AL amyloid fibrils composed of the recombinant λ6 light chain variable domain from patient (human). Put plainly: co-sedimentation; "pulldown" bioactivity assay; product labelled from lyophilized "kit" preparations stored at -80°C for 7, 98 and 128 days.
For test [8] the target is unchanged. Put plainly: co-sedimentation; "pulldown" bioactivity assay as a1; batch product 6 h post-synthesis (some loss of ^99mTcO4^-1 from the peptide).
Test [9] shares this target. Put plainly: co-sedimentation; pulldown as for WIL fibrils except that 1.0% bovine serum albumin was added; synthetic rVλ6WIL fibrils as substrate.

Chain of ^99mTc-labeled p5+14 peptide (peptide): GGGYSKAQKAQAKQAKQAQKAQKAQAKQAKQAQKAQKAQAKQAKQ
Chain of murine splenic AA amyloid extract (mouse (endogenous in spleen)) (P05367 20-122): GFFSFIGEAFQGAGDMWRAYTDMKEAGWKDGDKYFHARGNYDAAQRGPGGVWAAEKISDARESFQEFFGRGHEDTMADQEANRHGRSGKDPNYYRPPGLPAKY

Turning to ^99mTc-labeled p5+14 peptide, the Bioactivity (bound %), 3 h post-synthesis in test [1] came out at 92.9%. The Bioactivity (bound %), 0 h post-synthesis in test [2] was found to be 94%. For the same substance, the bound (%) in test [3] came out at 79%; in test [4] it was 88.1%; in test [5] it was 93.3%; in test [6], 67.8%; in test [9], 91.1%. In addition, the bioactivity (% bound), kit at day 7 in test [7] is 76.8%. For the same substance, the bioactivity (% bound), kit at day 98 in test [7] worked out at 75.1%. In test [7], the bioactivity (% bound), kit at day 128 is 75.2%. Moreover, the Bioactivity (bound %), 6 h post-synthesis in [8] turned out to be 72.2%.
